Settings in all cases: protein: recombinant; tags: GST (pGEX-4T-1); label: 3'-biotin
The target of data set [1] is T1, AdWRKY29 (kiwifruit, UniProt A0A2R6PHX2 1-296).
T1 sequence: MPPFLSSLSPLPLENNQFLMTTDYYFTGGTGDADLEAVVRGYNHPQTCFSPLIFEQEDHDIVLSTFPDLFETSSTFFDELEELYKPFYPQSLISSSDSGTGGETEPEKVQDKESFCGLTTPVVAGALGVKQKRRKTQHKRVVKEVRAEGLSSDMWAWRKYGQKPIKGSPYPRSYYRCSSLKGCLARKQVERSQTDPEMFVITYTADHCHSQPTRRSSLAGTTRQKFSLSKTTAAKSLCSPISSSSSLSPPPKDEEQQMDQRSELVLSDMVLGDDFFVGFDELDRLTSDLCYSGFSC
Description: EMSA; reduced by 20- and 500-fold unlabeled probe; LightShift Chemiluminescent EMSA kit (Thermo); 3'-biotin dsDNA probes, 20- and 500-fold unlabeled competitor; buffer, salt, pH and temperature not stated. (In EMSA bound probe runs differently from free probe, usually more slowly.)

The target of another data set is AdERF105L (kiwifruit, UniProt A0A2R6RWH8 1-269). Described as above.
In data set [2] the target is T1, AdWRKY29. Description: EMSA; LightShift Chemiluminescent EMSA kit (Thermo); 3'-biotin dsDNA probes, 20- and 500-fold unlabeled competitor; buffer, salt, pH and temperature not stated.

AdERF105L, sequence (A0A2R6RWH8 entry or part of it): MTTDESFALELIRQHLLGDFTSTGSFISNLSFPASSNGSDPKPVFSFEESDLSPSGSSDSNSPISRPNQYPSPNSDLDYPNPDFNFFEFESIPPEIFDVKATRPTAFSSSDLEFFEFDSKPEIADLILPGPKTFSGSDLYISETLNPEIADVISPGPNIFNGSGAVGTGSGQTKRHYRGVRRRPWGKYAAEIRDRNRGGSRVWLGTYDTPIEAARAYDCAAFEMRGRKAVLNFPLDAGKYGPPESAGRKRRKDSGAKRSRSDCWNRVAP

B1: AdACO5 promoter W-box probe (dsDNA)
DNA 1: AACAAAGTCCAGTTGACCACTTTAATTTCC
DNA 2: GGAAATTAAAGTGGTCAACTGGACTTTGTT
Regarding B1, in the data set with AdWRKY29 [1], the binding result is recorded as “binds”.

B2: AdACS1 promoter DRE probe (dsDNA)
DNA 1: CTGCGATTTGCCGTCGGTACGACTCTCATC
DNA 2: GATGAGAGTCGTACCGACGGCAAATCGCAG
B2: the binding result with AdERF105L is recorded as “binds”.

B3: AdACO5 promoter W-box mutant probe (dsDNA)
DNA 1: AACAAAGTCCAGAAAAAAACTTTAATTTCC
DNA 2: GGAAATTAAAGTTTTTTTCTGGACTTTGTT
For the molecule B3, the binding result with AdWRKY29 [2] is “no binding”.

B4: AdACS2 promoter DRE probe (dsDNA)
DNA 1: CTAAGATTTGCTGTCGGTATGGCTCTCAT
DNA 2: ATGAGAGCCATACCGACAGCAAATCTTAG
On to B4, for which the binding result in the data set with AdERF105L is reported as “binds”.
